Results as given in article doi:10.1101/2024.10.02.616235, “Mechanism of DNA entrapment by the MukBEF SMC complex and its inhibition by a viral DNA mimic” (bioRxiv, 2024).

How the values were obtained:
[1] = molecular target: the molecule itself; assay: cryo-EM structure; E. coli MukEF 1 μM mixed with 4 μM gp5.9 in 20 mM Tris, 200 mM NaCl, 0.5 mM TCEP, 0.05 % β-octyl glucoside, pH 7.4, on ice
[2] = molecular target: the molecule itself; assay: cryo-EM structure; wild-type P. thracensis MukBEF dimers 150 nM with nicked plasmid pFB526 and 5 mM ATP, 10 mM MgCl2, pH 7.0, optionally with Na3VO4 or BeSO4/NaF; datasets pooled

B1: T7 gp5.9, purified from insect cells (natural protein, bacteriophage T7)
chain: MSRDLVTIPRDVWNDIQGYIDSLERENDSLKNQLMEADEYVAELEEKLNGTS
notes: bacteriophage T7 gp5.9; histidine tag removed with 3C protease; Used as 'gp5.9 dimers' in SEC; source: Hi5 insect cells, purified (Talon, 3C cleavage, HisTrap, MonoQ)
B1 was tested, and the “stoichiometry N” value [1] was 2.

B2: P. thracensis MukE as subunit of wild-type MukBEF (natural protein, Photorhabdus thracensis)
chain: MSSTHIEQFMPVKLAQALANSLFPELDSQLRAGRHIGIDDLDNHAFLMDFQEQLEEFYARYNVELIRAPEGFFYLRPRSTTLIPRSVLSELDMMVGKILCYLYLSPERLANQGIFTSQELYEELISLADEGKLMKFVNQRSSGSDLDKQKLQEKVRTTLNRLRRLGMVYFLPNNNNKFTITEAVFRFGADVRSGDDPREIQLRMIRDGEAMPVEGSLSLDDSENDETPDNSAEGAGDEQP
notes: Photorhabdus thracensis MukE; the MukE chain of m14; source: E. coli BL21-Gold(DE3), co-expressed as MukBEF from pFB403, purified
B2 was tested, and the “stoichiometry N” value [2] was 2.
